Data from article PMC3068226 (Biochemistry, 2011).

Experiments:
BSA [1] = target: T1, BSA (Bos taurus, UniProt P02769); experiment: Binding to BSA by fluorescence quenching of albumin tryptophan; settings: double logarithmic plot (Eq. 6), less than 1 mol/mol dye to albumin
[2] = type: in vivo, mouse; settings: for change in kurtosis over time after injection: mouse ear, LS224 over 6 h, LS296 within 3 h
BSA [3] = target: T1, BSA

T1 sequence (P02769 25-607): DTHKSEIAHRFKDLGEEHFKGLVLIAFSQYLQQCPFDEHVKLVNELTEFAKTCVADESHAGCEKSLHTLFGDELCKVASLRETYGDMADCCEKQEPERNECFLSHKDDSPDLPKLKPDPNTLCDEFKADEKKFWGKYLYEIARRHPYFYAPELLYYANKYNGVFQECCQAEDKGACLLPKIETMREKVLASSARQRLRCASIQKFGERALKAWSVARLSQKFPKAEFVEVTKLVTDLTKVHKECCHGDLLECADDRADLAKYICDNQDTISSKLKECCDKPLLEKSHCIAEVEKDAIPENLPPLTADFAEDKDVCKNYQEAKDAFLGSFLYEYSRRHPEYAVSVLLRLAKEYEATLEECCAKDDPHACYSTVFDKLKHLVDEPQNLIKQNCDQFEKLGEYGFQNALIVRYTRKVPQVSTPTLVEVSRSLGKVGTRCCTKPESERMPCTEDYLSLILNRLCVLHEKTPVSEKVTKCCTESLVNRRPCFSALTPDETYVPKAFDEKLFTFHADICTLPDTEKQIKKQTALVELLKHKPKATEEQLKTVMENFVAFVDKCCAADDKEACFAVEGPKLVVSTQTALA

| Compound | change in kurtosis over time after injection ([2]; ex/em 780/800 nm) | K, M^−1 (binding constants to BSA in PBS buffer) (BSA [3]) | further results |
| --- | --- | --- | --- |
| CC1(C)C(/C=C/C=C/C=C/C=C2\N(CCCCS(=O)(=O)O)c3ccc4ccccc4c3C2(C)C)=[N+](CCCCS(=O)(=O)[O-])c2ccc3ccccc3c21 [ICG, indocyanine green] |  |  | number of binding sites n on albumin (BSA [1]): 1.012 ± 0.0212 |
| CC1(C)C(=CC=C2CCCC(C=CC3=[N+](CCCCCC(=O)[O-])c4ccc(S(=O)(=O)[O-])cc4C3(C)C)=C2Oc2ccc(S(=O)(=O)[O-])cc2)N(CCCCS(=O)(=O)[O-])c2ccc(S(=O)(=O)[O-])cc21.[Na+].[Na+].[Na+].[Na+] [IRdye800CW, reference compound] |  |  | initial kurtosis value at the first time point ([2]; mouse ear ROI, 2 min after injection): less than 1; time of peak fluorescence intensity in ROI after injection ([2]; mouse ear ROI, intravenous injection, ex/em 780/800 nm): 20 to 30 min; binding constant K to BSA (BSA [3]): ~6,100 M^−1 |
| Cypate-DPhe-Cyclo(Cys-Tyr-DTrp-Lys-Thr-Cys)-Thr-OH (disulfide) [LS224] | no changes in kurtosis | 51,000 M^−1 |  |
| Cypate-Gly-Arg-Asp-Ser-Pro-Lys-OH [LS39] |  | 76,000 M^−1 |  |
| LS276-DPhe-Cyclo(Cys-Tyr-DTrp-Lys-Thr- Cys)-Thr-OH (disulfide) [LS296] | dramatic changes | 14,880 M^−1 |  |
